Drawing on paper PMC10040874 (2023), this text covers Ka and Kd for 7 molecules.

Experiment [1] addresses M. brevicollis CNNM CBS-pair domain (M. brevicollis). The experiment is described as follows: ITC. (In general: ITC needs no label: the signal is the heat of the interaction.)
Experiment [2] has the same target. The experiment is described as follows: ITC. The source holds these as a separate data set.
Experiment [3] addresses D. rerio CNNM CBS-pair domain (D. rerio). Kind of experiment: ITC.
For experiment [4] the target is unchanged. Kind of experiment: ITC. This is another data set of the same source.
Experiment [5] deals with T1, CBS-pair domain of a C. elegans CNNM protein (the one of two expressed that bound with 13 μM affinity) (C. elegans).
T1 chain: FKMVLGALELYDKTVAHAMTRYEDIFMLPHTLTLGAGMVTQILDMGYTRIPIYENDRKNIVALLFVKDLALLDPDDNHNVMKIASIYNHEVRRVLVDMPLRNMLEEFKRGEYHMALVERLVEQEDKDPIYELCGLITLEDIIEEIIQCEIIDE
Kind of experiment: ITC; CNNM3.

The target of experiment [6] is T2, CBS-pair domain of a C. elegans CNNM protein (the one of two expressed that bound with 1 μM affinity) (C. elegans).
T2 chain: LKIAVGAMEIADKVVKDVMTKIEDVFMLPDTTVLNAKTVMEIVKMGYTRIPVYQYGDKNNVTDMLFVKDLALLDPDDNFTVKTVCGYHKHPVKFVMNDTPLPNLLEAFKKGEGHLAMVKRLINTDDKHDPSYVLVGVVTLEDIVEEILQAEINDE
The experiment is described as follows: ITC; CNNM1.

Experiment [7] has as its target T2, CBS-pair domain of a C. elegans CNNM …. The experiment is described as follows: ITC; CNNM1.
In experiment [8] the target is T3, Toxoplasma gondii CNNM CBS-pair domain (T. gondii).
T3 chain: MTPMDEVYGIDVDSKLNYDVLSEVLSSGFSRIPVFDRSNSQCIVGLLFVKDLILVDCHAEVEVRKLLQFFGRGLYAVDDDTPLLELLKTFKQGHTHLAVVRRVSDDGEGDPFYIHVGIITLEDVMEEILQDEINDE
Kind of experiment: ITC.

Experiment [9] concerns the target T3, Toxoplasma gondii CNNM CBS-pair domain. Kind of experiment: ITC.
Experiment [10] addresses T4, human CNNM3 CBS-pair domain (human, UniProt Q8NE01 309-452). Kind of experiment: ITC.
Experiment [11] has as its target T4, human CNNM3 CBS-pair domain. Kind of experiment: ITC. This is another data set of the same source.
Experiment [12] has as its target Drosophila melanogaster CNNM CBS-pair domain, GST-tagged (D. melanogaster, UniProt A0A0B7P9G0 362-515). Kind of experiment: ITC.

T4 sequence (Q8NE01 309-452): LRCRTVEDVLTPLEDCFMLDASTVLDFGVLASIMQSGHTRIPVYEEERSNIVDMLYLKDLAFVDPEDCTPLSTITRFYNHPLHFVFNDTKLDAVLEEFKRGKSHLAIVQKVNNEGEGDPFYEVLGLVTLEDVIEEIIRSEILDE
Chain of D. rerio CNNM CBS-pair domain (D. rerio) (chain, as listed by the source): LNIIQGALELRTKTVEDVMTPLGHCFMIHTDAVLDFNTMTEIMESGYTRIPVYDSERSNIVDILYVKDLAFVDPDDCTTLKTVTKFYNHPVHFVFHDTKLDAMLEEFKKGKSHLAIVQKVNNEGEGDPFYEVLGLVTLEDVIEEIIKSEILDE
Chain of Drosophila melanogaster CNNM CBS-pair domain, GST-tagged (A0A0B7P9G0 362-515): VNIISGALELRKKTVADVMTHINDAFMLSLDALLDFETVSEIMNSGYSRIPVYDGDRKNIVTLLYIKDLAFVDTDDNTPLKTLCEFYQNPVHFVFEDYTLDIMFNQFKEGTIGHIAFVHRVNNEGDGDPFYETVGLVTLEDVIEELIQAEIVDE

B1: M. brevicollis PRL (enzyme)
chain: MARNHISKISHKNMRFLITDRPSDATVEDYVRVLQQENVVALCRVCEPSYDVSKLKDNGIEVHDWAFQDGAPPPDEVIDNWLRLCRETFAQHPNGFVAVHCVAGLGRAPVLVALSLIEAGMSSEDAVLFIREKRHGAINRRQLQFLQDYKRRGKAKG
In [1], B1 gave a Ka of 3.24e+06 M⁻¹. The Kd (as a rule, the concentration at which binding is half-saturated) in [2] is 300 nM.

B2: D. rerio PRL (enzyme)
chain: MARMNRPAPVEVCYKNMRFLITHNPTNSTLSSFIEDLKKYGVTTVVRVCEITYDKTPLEKNGITVVDWPFDDGAPPPSKVVEDWLSLLKRRFIEEPGCCVAVHCVAGLGRAPVLVAVALIESGMKYEDAIQFIRQKRRGAINSKQLTYLEKYRPKQRLRYKHPHIFKNK
modifications: Table S2 says CNNM4 only; the choice of cnnm4a over cnnm4b is assumed
In the case of B2, the Ka in experiment [3] came out at 5.84e+07 M⁻¹. Further, the dissociation constant Kd in experiment [4] was 17 nM.

B3: Caenorhabditis elegans PRL (enzyme)
chain: MSAAVQKRASTNTVAATTYFKPAPSEIAWGKMRFLITDRPNNSSIQSYIEELEKHGARAVVRVCEPTYDTLALKEAGIDVLDWQFSDGSPPPPEVIKSWFQLCMTSFKEHPDKSIAVHCVAGLGRAPVLVAIALIEAGMKYEDAVEMIRTQRRGALNQKQLKFLETYKANGELRRLRGNVDGKQKSCCIQ
modifications: Assigning the 13 uM binder to CNNM3 is inferred from listing order (Figure 4 not in text)
In experiment [5], B3 returned a Kd of 970 nM.

B4: Caenorhabditis elegans PRL (enzyme)
chain: B3 chain
modifications: Table S2: only CNNM1 (376-530) and CNNM3 (375-527) gave protein; assigning the 1 uM binder to CNNM1 is inferred from listing order (Figure 4 not in text)
In turn, B4 registered a Ka in experiment [6] of 76100 M⁻¹. In experiment [7], this molecule returned a Kd of 13000 nM.

B5: Toxoplasma gondii PRL (enzyme)
chain: MNEASSCLSPEEPRSCDNREEGTTRELRSGSHMGKGKLGHSPTTSHSELTREGSSVDCGRRGGNEEKTEEKRSEKAGAERECERKTQRPRFDGDGSSLSPRSNASRGSACSTRSCESHEKVGRTLSGDSTGRDGVCSVSSARQPSLRRKSAAEEVGREVKVDGKALDSQIELVRTKNRGKSEVTRLGRGAGSACAVSVSPLGTARHVPSGRQPSERRQSAKPLTKLSSSSSSHNKTTMVPTVMNTPTRIEAGRQKFLIFDAPSQENLPAYIEEMRAYEVTDLVRTCERTYDDKTVLASGIRPHELIFPDGEAPPDDVIDEWLTLCNAVSQQRGAIAIHCVAGLGRAPVLVAIALIEKGMDPMDAIMFIRERRKGAINRRQLQFLKGYKRRSNYKKCCGGR
On to B5, for which, in experiment [8], the Ka came to 134000 M⁻¹. This molecule had an equilibrium dissociation constant (Kd) in experiment [9] of 7400 nM.

B6: human PRL2 (enzyme)
chain: MNRPAPVEISYENMRFLITHNPTNATLNKFTEELKKYGVTTLVRVCDATYDKAPVEKEGIHVLDWPFDDGAPPPNQIVDDWLNLLKTKFREEPGCCVAVHCVAGLGRAPVLVALALIECGMKYEDAVQFIRQKRRGAFNSKQLLYLEKYRPKMRLRFRDTNGH
As to B6, the Ka in experiment [10] turned out to be 3.63e+07 M⁻¹. This molecule displayed a dissociation constant (Kd) in [11] of 28 nM.

B7: Drosophila melanogaster PRL (wild-type) (enzyme)
chain: MSITMRQKDLRPAPALIEYKGMKFLITDRPSDITINHYIMELKKNNVNTVVRVCEPSYNTDELETQGITVKDLAFEDGTFPPQQVVDEWFEVLKDKYQQNPEACVAVHCVAGLGRAPVLVALALIELGLKYEAAVEMIRDKRRGAINAKQLSFLEKYKPKARLKHKNGHKNSCSVQ
Molecule B7 had a Ka in [12] of 2.84e+06 M⁻¹.
